We go through one substance from patent US20250002907A1.

Assay [1] concerns the target Rpk9 monomer (with Avi and hexa-histidine tags) (SARS-CoV-2 (Wuhan-Hu-1)).
The target in assay [2] is Rpk4 monomer (with Avi and hexa-histidine tags) (SARS-CoV-2 (Wuhan-Hu-1)).

On to CR3022 IgG (antibody), for which the fold decrease of affinity against wild-type RBD in assay [1] and in assay [2] was less than 3.5 fold each time.
